The values that follow come from article PMC4869717 (ACS chemical biology, 2015).

The series “AUC” deals with the molecule itself. The experiment in a line: AUC.
Series [1] deals with the molecule itself. Nature of the series: thioflavin T fluorescence.

Substitutions are numbered along the chain they refer to. Numbers in names are those of the source.

B1: emerin fragment from amino acid 1 to amino acid 187 (EmN), wild type, His-tagged (domain or fragment, human, UniProt P50402 1-187, looked up)
chain: MDNYADLSDTELTTLLRRYNIPHGPVVGSTRRLYEKKIFEYETQRRRLSPPSSSAASSYSFSDLNSTRGDADMYDLPKKEDALLYQSKGYNDDYYEESYFTTRTYGEPESAGPSRAVRQSVTSFPDADAFHHQVHDDDLLSSSEEECKDRERPMYGRDSAYQSITHYRPVSASRSSLDLSYYPTSSS
The stoichiometry N is a count of units in the complex or per binding partner. In the case of B1, the “stoichiometry N” value in the series “AUC” stood at 2.

B2: EmN variant P183T (domain or fragment, human, UniProt P50402 1-187, looked up)
chain: B1 chain with P183T
As for B2, the binding result in series [1] is on record as “binds”.

B3: EmN variant P183H (domain or fragment, human, UniProt P50402 1-187, looked up)
chain: B1 chain with P183H
In the case of B3, the binding result in series [1] is “binds”.

B4: emerin fragment from amino acid 1 to amino acid 187 (EmN), wild type, His-tag cleaved (domain or fragment, human, UniProt P50402 1-187, looked up)
chain: B1 chain
Consider B4, for which the “fold increase in ThT fluorescence intensity at 480 nm” value in series [1] stood at 10 fold.

B5: EmN variant S54F (domain or fragment, human, UniProt P50402 1-187, looked up)
chain: B1 chain with S54F
On to B5, for which the binding result in series [1] is listed as “binds”.

B6: EmN variant Q133H (domain or fragment, human, UniProt P50402 1-187, looked up)
chain: B1 chain with Q133H
B6: in series [1], the binding result was “binds”.
